# Test results published in the DeepSol protein solubility set.
# Assay: soluble on expression in E. coli; label from the status in PepcDB or PDB records
row,Sequence,soluble on expression in E. coli
1,MGSDKIHHHHHHMRFSRIPPIFANVVRQTHYRNYANGVIKPREFNKVMVANRGEIAIRVFRALTELNKTSVAIYAEQDKNSMHRLKADEAYLVGKGLPPVAAYLTIDQIIETALKHNIDAIHPGYGFLSERSDFAAACQNAGIVFIGPSPDVMARMGDKVAARQAAIEAGVQVVPGTPGPITTADEAVEFAKQYGTPIILKAAYGGGGRGIRRVDKLEEVEEAFRRSYSEAQAAFGDGSLFVEKFVERPRHIEVQLLGDHHGNIVHLYERDCSVQRRHQKVVEIAPAPALPEGVREKILADALRLARHVGYQNAGTVEFLVDQKGNYYFIEVNARLQVEHTVTEEITGVDLVQAQIRIAEGKSLDDLKLSQETIQTTGSAIQCRVTTEDPAKGFQPDSGRIEVFRSGEGMGIRLDSASAFAGSVISPHYDSLMVKVIASARNHPNAAAKMIRALKKFRIRGVKTNIPFLLNVLRQPSFLDASVDTYFIDEHPELFQFKPSQNRAQKLLNYLGEVKVNGPTTPLATDLKPAVVSPPIPYIPAGAKPPTGLRDVLVQRGPTEFAKEVRSRPGCMITDTTFRDAHQSLLATRVRTYDMAAISPFVAQSFNGLFSLENWGGATFDVSMRFLHECPWERLQTLRKLIPNIPFQCLLRGANAMGYSNYPDNVIYKFCELAVKNGMDVFRVFDSLNYLPNLLVGMEAVGKAGGVVEAAIAYTGDVTDKSRDKYDLKYYLNLADQLVKAQAHILSIKDMAGVLKPEAAKLLIGALRDKFPDIPIHVHTHDTSGAGVAAMLECAKAGADVVDAAVDSMSGMTSQPSMGAIVASLQGTKHDTGLSLDDISKYSAYWESTRQLYAPFECATTMKSGNADVYKHEIPGGQYTNLQFQAFSLGLGPQFDEVKRMYREANLVLGDIIKVTPSSKIVGDLAQFMVQNNLTRETLVDRADDLSFPKSVVDFMQGNVGQPPYGFPEPLRTKVLRGKPKVDGRPGENAKPVDLDAVKVELEEKHGRTLSEEDVMSYSMFPTVFDEFETFRQQYGPVDKLPTRLFLTGLEIAEEVDVEIESGKTLAIQLLAEGKLNKRGEREVFFDLNGQMRSIFVVDKEASKEIVTRPRALPGVRGHIGAPMPGDVLELKIKEGDKVTKKQPLFVLSAMKMEMVIDSPIAGTVKAIHAPQGTKCSAGDLVVEVEP,not soluble
2,MAHHHHHHMVVFINGLPVLTFELKNSLTKQTVADAVVQYQTDRNPAELLFQLGRCIAHVAVDDAEVRFCTHLTGKTSWFLPFNQGWNSGAGNPPNPNGLRTDYLWKQVLAKESLANIIENYAQVIEEEEEDTNGRKRRTRKQIFPRFHQLRTVRALMRRSRADGVGKRYLIQHSAGSGKSNTIAWLAHQLVELKTAADNTQAQFDSVIVITDRRALDAQIARTIKAYDHVASIYGHSESADELRTFLAPGQEDHRHHGAEVPVHPDELGGTL,not soluble
3,MGSDKIHHHHHHMRIAQVAPLWERVPPPAYGGIELVVGLLTDELVRRGHEVTLFASGDSISLANLVSVHPRALRLDSSVKEYGIYEMLQLSTVYERADEFDIIHSHMGCASLPYTKLVKTPTVHTLHGIFTPDNEKMFRYAKTEPFVSISDAQRDLRLGLNYVGTVYNGIDVNSYKFYPQPDEPPYLAFLGRISPEKGTHLAIEIAKKSGWHLKIAGKVDVVDVEYFEKEIKPLIDGKQIEYLGEADHTQKNVLMGGAVATLFPITWREPFGLVMVESMASGTPVIAMNLGSTTEVIAHGKTGFLCSNVEECVSAIAKVADLDRYTCREYVQNRFSLQAMTEGYEEVYRQILQQRFANNGHHRSTVALSKV,not soluble
4,MADFDTNPTSLYSIKGIVILDQDGNRVLAKYYDRTTFGTVKEQKAFEKSLFSKTSRNTSADILLLDGVTCLYRSNVDLYFYVLGSTRENELFLDATLTCLYDAVSVVLRKNVEKKALIDSMDTIMLIIDEICDEGIIMETDAQAVVQRTALKSDEVSFSDQSVSQIGFSFMKSANEQFKWSLLK,not soluble
5,MGSDKIHHHHHHMLKIGLLWHSTTSDNLGVGALTEAQISIINKAAVQAGVEVEYRIFGTNGNKDYFEGNPLIERGTNVSLKRILIGASDYPKKIRECDVVFDIGEGDSFADIYGFSRFLIQIVSKLVVLFQRKPLILSPQTIGPFESRFNLKVANNVMQRCTKIFVRDGLSFGYLQKNNLSVNAEEVIDVAFRLPFQRPSRDSSKVKIGLNVSGLLYNGGYTGKNQFGLSVNYPELTRSLLDQFTRIEGCEVWLVPHVLTTSFPIEDDVNVCVQLQELYPAAKLAPSFSSPSQAKSFISGMDFFLGARMHACIAAFSSGVPVVPLAYSRKFNGLFSALDYPYLGDCKVNTNEQIVGLVMDCFNSREQLKFAVEEGNKIAEKKLLRYEQYIAELLTRISNKKIVL,not soluble
6,WLRPAFAGKTRLDALDEAAFEQAVKSLLSWTQHALIDRHVPAHIIVPSGMGRHIDYGLADDGTPQPPVLSVKLQELFGLPDTPRIAKNRIPLTLHLLSPGGRPLQVTQDLKSFWTNTYPEVKKEMKGRYPKHPWPDDPWTATATHRTKSPGK,not soluble
7,MLGGSLYQVYAIKEAVKMGYYVITCDYLPNNPGHQYAHEYYNVSTTDKEAVYELAKRLQVDGVVAYASDPAAPTAAYVCEKLGLPTSPYTSVEILSQKDLFRRYLAEHNFNVPKYVGCSSYTEALEQIKNLTLPVMIKPVDSSGSKGINKLTNVDQLKDFIEDALSYSREKRIIIEEFIEKDGYQISGDAFSVDGILKFHCFGNEYYSSSVVKDFAPLGECWPFQMKPEIITELEKDIQRLISELKMGTTAYNVEAILGKNGKLYILELGARSGGSLIPQITELATGVNMVKYVIKAALGEDCSEIEMSPARGYWSNYMLHSKQTGRFKEISFDENFAKNNLVDCVTELKSGDNVHAFRDAGDALGTLILKYSSKEEMFNVIENMDQFVHIIID,not soluble
8,MSRFFHAKEDSDSDTSSSEDEVEDQKVNKSAKFRDDLDFMAGPEEDEKRVVRAQKDKKFDELKGIIKQNRDAKSNKDLNRLLTGFDSLAKAYDKSKTVFQRQNVANPRFYIRSLVEIEDYVNKLWDDKDAKSALSKNNAKALPPLRQKLKKYIKDQQLQDLVTDYRVNPDEDGYETPEDEDDDDFGEVSESKAEKSPGKPSEKAAVSDSDSDSDDDDSSNWSSEPESNSSDDEDSVTKMEQLRRYFLKKEFRVESKDDKKEKKKRVIRVKEAVEEDDDADWTPVNREKSVVHFDPKEEVTHDVMIKKLNEVMSARGKRTTDRNQHVANLRKLLEVSEEKELGLGINVKISFCIISALFELNAKISDHMEYETFMTTLQTVNSLLDLLIGTDRVKLSVTYAEEDENLKDDTQEYRIQGSILIAVQRLDGELAKILQNADCHSNDYIEKLKAEKDMCSLIEKAEKYVELRNDSGIFDKHEVCKVYMMRIEHAYYKYQDQNEEDAGKLMDYLCNKIYTLDDEKRLRQRAMLCHVYYLAVHDKWHRARDLLLMSHMQAIVDHSDVDTQILYNRTICQLGLCAFRHGFIREAHQGLSEIQNTQRAKELLAQAVGTRQHEKTAEQEKIDRSRQVPYHMHINVELMECVYLICSMLLEIPHMASCEFEMRRRMLSRSFHYQLKQSEKASLTGPPENTREHVVAASKAMLNGDWKKCQDYIVNDKMNQKVWNLFHNAETVKGMVVRRIQEESLRTYLLTYSTVYATVSLKKLADLFELSKKDVHSIISKMIIQEELSATLDEPTDCLIMHRVEPSRLQMLALNLSDKLQTLAENNEQILEPRTGRGGYQGPGSWFPGRNERQGDKQKGSGGYQGERRGGQGQDGKRGNWGSQGGQQRRHPQKPRAF,not soluble
9,SNAMLHYVHVGNKKSPNTLLFVHGSGCNLKIFGELEKYLEDYNCILLDLKGHGESKGQCPSTVYGYIDNVANFITNSEVTKHQKNITLIGYSMGGAIVLGVALKKLPNVRKVVSLSGGARFDKLDKDFMEKIYHNQLDNNYLLECIGGIDNPLSEKYFETLEKDPDIMINDLIACKLIDLVDNLKNIDIPVKAIVAKDELLTLVEYSEIIKKEVENSELKIFETGKHFLLVVNAKGVAEEIKNFI,soluble
10,AHHHHHHGSGVEKVPKYDIPVKKVEYVFIELDKMKPHEQLVQRELEDFIESVTGSGIFWKPMLLAKIPGTDEYLIVDGHHRWAGLQKLGAKRAPSVILDYFDEGVKVYTWYPAFKGDVNKVIERLKAEGLEVIEDEKAEEKAEKGEIAFALIGEKSFAIPGGLEEQKKVSKVLDEMDQAKEIELVYYGLKEDAKADMEKGEIDYVFIRKAPTKEEVMELVKRGEVFSPKTTRHVLPFIPDKIDVKLEDLF,soluble
11,STFQFNFTIEDHLENELTPIRDGALTLDSSKELSVSESQKGEERDRKCSAEQFDLPQDHLWEHKSMENAAPSQDTDSPLSAASSSRNLEPHGKQPSLRAAKEHAMPKDLKKMLENKVIETLPGFQHVKLSVVKTILLKENFPGENIVSKSFSSHSDLITGVYEGGLKIWECTFDLLAYFTKAKVKFAGKKVLDLGCGSGLLGITAFKGGSKEIHFQDYNSMVIDEVTLPNVVANSTLEDEENDVNEPDVKRCRKPKVTQLYKCRFFSGEWSEFCKLVLSSEKLFVKYDLILTSETIYNPDYYSNLHQTFLRLLSKNGRVLLASKAHYFGVGGGVHLFQKFVEERDVFKTRILKIIDEGLKRFIIEITFKFPG,not soluble
12,TINPVMQQVAYDQLTAKGYTGSVVAIEPSTGRILTMVSTPSYDPNSLASHDGTETTQAWEALNADPEKPLINRAVSQTYPPGSTFKVVVTAAALAAGTTPDTQLTAAPQITLPGTSTTLENYNGSTCGGAPTASLREAFARSCNTAFVELGVKTGTDAVSDQSSALGIGGQMPGVPFPVADSTIGSIPDDAALGQSSIGQRDVALTPLQNAMIAATVANGGVRMQPQLVSELQGPDLSNLATTNPVSEGQAMSSQVAATLTDLMIGSENNTSGEGKIPGVQIASKTGTAEHGTDPRNTPPHAWYIGFAPAQNPTVAIAVIVEDGGDRALAATGGSVAAPIGRAVIAAGLQGG,not soluble
13,GSQGHDTVQPNFQQDKFLGRWYSAGLASNSSWFREKKAVLYMAKTVVAPSTEGGLNLTSTFLRKNQCETKIMVLQPAGAPGHYTYSSPHSGSIHSVSVVEANYDEYALLFSRGTKGPGQDFRMATLYSRTQTLKDELKEKFTTFSKAQGLTEEDIVFLPQPDKCIQE,soluble
14,MIVTLLGTGDSPGTPILNCHCRTCEDARRKGWERKRFSVMVQNNGKTVLIDTSPDLRRQLLDCGVEKVDAVIWTHCHFDHFGGFGEFYRVQNNVKVYSTPQIHEDIGHFMKFMSYKPVEVEAFENFTIAGMDFTLLPVNHPPVSAVGVKVEWKGYKVVVSGDTNVRIPEATLREMQNPDLLIVEALAPTGRFRKHMNAKEALELAKRLNAGKVVLTHLGHFFPPHHLAIKSYPVGEDYQSFSFGEGRLDEFFGDLEHHHHHH,not soluble
15,MSLTHSCRLSVAPMLDWTDRHCRYFHRLLSAQTLLYTEMVTTGAIIHGRGDFLAYNQEEHPVALQFGGSNPKDLAHCAKLAQERGYDEINLNVGCPSDRVQNGRFGACLMGEPDLVAECVAAMRAVVDIPVTVKTRIGIDDQDSYEFLTQFIATVAEKGGCEQFTIHARKAWLSGLSPKENREIPPLDYPRAYQIKRDFPHLTIAVNGGVKSLEEAKLHLQHLDGVMIGREAYQNPYLLAEVDQQIFGLETPVKKRSQVIHEMMPYIERELSQGTHLGHMTRHMLGLFQNMPGARQWRRHISENAHKPGAGLEVVEQALAKIPYQELGEGHHHHHH,soluble
16,MGSDKIHHHHHHENLYFQGAVDLDREGRDPAYVESIVKRSQKIVDKLELTDTVAAREVTTIIANRYFKLNDIYETRDAKVKLAKETLTGDAKQEAVKAAEAEKDAALYRTHFAFPADLSLYLDAKQIDAVKDGMTYGVVMVTYKATVDMIPTLKEEEKAQIMAWLVEAREFAMDAENSNKKHAAFGKYKGRINNYLSKRGYDLVKERKAWYERIKARGGKI,soluble
17,GHMPFEWVKQYDYEDIIYETYNGIAKITINRPEVHNAFRPKTVNEMIDAFTKARDDSNIGVIILTGAGGKAFCSGGDQKVRGHGGYVGEDEIPRLNVLDLQRLIRVIPKPVIAMVAGYAIGGGHVLHVVCDLTIAADNAIFGQTGPKVGSFDGGYGAGYLARIVGHKKAREIWYLCRQYTAQEALEMGLVNKVVPLEQLEEETVKWAQEILEKSPTAIRFLKAAFNADSDGLAGIQQLAGDATLLFYTTEEAKEGMRAFKEKRKPDFSQFPRFP,soluble
